{"source": "patent US20060034860A1", "about": "(CELLVIR, published 2006)", "binders": {"B1": {"name": "HIV-1 reverse transcriptase p66 subunit, bait RT_v1 (enzyme)", "chain": "not shown", "notes": "also called p66 RT; HIV-1 p66 RT"}, "B2": {"name": "HIV-1 protease, bait PR_v1 (enzyme)", "chain": "not shown"}, "B3": {"name": "HIV-1 Nucleocapsid NCp7, bait NC_v1 (other)", "chain": "MQRGNFRNQRKTVKCFNCGKEGHIAKNCRAPRKKGCWKCGKEGHQMKDCTERQAN"}}, "key": {"[1]": {"target": "T1, Human AKAP1 (prey026778), A kinase anchor protein 1 (Human, UniProt Q92667 30-903)", "T1 construct": "Prey fragments (vector pP6) in the primary screen", "T1 sequence": "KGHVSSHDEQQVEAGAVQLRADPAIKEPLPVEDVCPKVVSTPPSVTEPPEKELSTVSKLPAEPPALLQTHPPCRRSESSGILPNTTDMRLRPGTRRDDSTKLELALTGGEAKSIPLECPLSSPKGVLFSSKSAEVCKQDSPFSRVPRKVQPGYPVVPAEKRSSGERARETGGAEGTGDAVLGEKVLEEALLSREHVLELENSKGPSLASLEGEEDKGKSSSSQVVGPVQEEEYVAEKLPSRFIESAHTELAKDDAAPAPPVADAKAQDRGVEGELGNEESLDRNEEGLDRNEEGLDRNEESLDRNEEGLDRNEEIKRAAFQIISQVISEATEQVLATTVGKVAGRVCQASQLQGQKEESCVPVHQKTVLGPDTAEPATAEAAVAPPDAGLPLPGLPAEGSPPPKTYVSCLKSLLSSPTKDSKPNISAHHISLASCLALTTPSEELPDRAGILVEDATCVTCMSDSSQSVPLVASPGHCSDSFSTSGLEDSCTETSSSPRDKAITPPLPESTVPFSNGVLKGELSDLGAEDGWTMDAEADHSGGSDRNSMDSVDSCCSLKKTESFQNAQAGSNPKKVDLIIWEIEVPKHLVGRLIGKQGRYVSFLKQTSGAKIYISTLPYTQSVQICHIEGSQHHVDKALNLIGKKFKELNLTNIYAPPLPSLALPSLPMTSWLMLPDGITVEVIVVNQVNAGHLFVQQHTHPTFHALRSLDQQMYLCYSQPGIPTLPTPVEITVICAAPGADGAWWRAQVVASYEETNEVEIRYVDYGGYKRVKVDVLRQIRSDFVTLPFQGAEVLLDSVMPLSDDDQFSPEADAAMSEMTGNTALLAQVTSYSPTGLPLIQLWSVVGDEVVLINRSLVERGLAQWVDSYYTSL", "test": "yeast two-hybrid screen, bait RT_v1, CEMC7 random primed cDNA prey library; table of bait-prey interactions"}, "[2]": {"target": "T2, Casein Kinase 2, beta polypeptide (CSNK2B), prey47239, prey fragments (Human, UniProt P67870 2-215)", "T2 construct": "also called hCSNK2B; regulatory beta chain of CK2", "T2 sequence (P67870 2-215 limits assumed)": "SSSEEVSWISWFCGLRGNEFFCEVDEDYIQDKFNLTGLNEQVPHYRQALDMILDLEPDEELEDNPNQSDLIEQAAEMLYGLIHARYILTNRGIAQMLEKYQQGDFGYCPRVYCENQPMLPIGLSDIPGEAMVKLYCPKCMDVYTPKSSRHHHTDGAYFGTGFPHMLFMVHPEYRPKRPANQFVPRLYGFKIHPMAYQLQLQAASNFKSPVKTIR", "test": "yeast two-hybrid screen, bait PR_v1 (pB27), Human CEMC7 Random Primed prey library; table of bait-prey interactions"}, "[3]": {"target": "T3, Human UBE1 (prey030679), prey fragments (Human, UniProt P22314 2-1058)", "T3 sequence": "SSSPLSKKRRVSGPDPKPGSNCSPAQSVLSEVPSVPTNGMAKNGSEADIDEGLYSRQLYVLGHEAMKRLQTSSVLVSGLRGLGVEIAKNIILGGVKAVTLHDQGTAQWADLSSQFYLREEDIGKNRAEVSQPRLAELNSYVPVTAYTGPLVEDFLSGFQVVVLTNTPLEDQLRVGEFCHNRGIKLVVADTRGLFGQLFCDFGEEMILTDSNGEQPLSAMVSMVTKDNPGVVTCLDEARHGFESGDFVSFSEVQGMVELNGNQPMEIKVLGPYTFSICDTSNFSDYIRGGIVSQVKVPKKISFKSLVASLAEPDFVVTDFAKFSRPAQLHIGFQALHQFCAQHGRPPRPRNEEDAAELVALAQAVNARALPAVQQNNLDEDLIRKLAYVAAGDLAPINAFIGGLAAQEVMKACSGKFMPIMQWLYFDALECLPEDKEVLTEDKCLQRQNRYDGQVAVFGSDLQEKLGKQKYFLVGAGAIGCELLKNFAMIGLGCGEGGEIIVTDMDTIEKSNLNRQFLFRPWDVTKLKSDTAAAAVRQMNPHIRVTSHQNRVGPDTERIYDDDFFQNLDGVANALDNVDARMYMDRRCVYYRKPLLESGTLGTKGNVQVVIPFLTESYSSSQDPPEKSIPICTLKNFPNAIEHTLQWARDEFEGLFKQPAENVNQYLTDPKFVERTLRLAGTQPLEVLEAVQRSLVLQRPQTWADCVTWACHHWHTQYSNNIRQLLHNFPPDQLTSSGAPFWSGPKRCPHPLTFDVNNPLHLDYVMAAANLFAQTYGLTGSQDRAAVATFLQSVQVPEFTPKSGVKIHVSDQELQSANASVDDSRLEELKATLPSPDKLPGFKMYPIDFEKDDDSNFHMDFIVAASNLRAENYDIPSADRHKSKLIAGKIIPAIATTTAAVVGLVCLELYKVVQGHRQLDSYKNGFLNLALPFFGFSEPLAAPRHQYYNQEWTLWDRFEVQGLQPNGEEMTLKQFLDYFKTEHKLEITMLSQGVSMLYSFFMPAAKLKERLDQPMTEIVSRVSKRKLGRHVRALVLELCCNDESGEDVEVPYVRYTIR", "test": "yeast two-hybrid screen, bait PR_v1 (pB27), CEMC7 oligo dT primed cDNA prey library; table of bait-prey interactions"}, "[4]": {"target": "T4, BRCA1 assoc. Prot.1 (BAP1), prey17662 / prey145885, prey fragments (Human, UniProt Q92560 1-729)", "T4 construct": "also called hBAP1; Ubiquitin Hydrolase", "T4 sequence": "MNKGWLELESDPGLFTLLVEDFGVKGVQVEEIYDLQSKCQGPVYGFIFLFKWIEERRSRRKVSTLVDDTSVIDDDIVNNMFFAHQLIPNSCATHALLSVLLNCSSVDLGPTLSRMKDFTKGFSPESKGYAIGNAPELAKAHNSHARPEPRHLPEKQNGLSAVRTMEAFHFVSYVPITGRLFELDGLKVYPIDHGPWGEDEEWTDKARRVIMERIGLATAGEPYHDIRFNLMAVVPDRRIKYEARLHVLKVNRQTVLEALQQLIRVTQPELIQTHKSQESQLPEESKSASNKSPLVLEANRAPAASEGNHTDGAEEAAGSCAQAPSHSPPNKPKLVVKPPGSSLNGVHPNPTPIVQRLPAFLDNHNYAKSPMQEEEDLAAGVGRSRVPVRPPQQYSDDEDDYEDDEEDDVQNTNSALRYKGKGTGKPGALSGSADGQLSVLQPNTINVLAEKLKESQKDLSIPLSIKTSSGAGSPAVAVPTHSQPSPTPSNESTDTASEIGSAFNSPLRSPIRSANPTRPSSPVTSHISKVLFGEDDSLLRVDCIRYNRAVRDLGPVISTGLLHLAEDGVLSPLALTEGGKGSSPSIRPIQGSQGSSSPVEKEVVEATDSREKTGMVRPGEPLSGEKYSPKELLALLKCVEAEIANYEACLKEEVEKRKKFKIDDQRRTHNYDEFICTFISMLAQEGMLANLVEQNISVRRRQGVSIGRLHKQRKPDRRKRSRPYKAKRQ", "test": "yeast two-hybrid screen, bait NC_v1 (pB6), Human CEMC7 Random Primed prey library; table of bait-prey interactions"}}}
{"binder": "B1", "values": [{"measurement": "binding result", "setting": "[1]", "result": "binds"}]}
{"binder": "B2", "values": [{"measurement": "binding result", "setting": "[2]", "result": "binds"}, {"measurement": "binding result", "setting": "[3]", "result": "binds"}]}
{"binder": "B3", "values": [{"measurement": "binding result", "setting": "[4]", "result": "binds"}]}
